For this test, the target named is F-actin (rabbit muscle actin) (rabbit, UniProt P68135 1-377). Nature of the test: co-sedimentation.

B1: His-ctxII (recombinant N-terminal His-tagged cortexillin II) (natural protein)
chain: MDLNKEWEKVQEMAFTSWVNSVLEKRGCDKISDVSTDLSDGVKLIYFLESVSGKKFPKKFDLEPKTRIMRVQNLHLAMLFIDEDLKIKVQGVAAEEFVDNNKKMILGFLWTLYRKYRISVINEGDKSSEEGLLAWCKKTTEGYNNVNITGFKSSFRDGHGFLALAHKYDPTVFKYDEYEGHDNIARLNAAFDFAEKGLGIPKLLEAESLSKGNVDERSIVLYTSLFFHAFRAKEEREALEASQNSLNNKLASLEQSLEGEKHSQEELVKQKKDLEDALNKIREQNDNRNSRITDLQSKIDDALRGLDDEKLAKLDLESRLAKCEKDKAILELKLAEILDEKDRLEKKIDEDKKRAEAERLGLGLIRQHLAAQFSDIHKWQSFLEHPETVPYTGTPVDLDSELSSLSFEEQAKKLASKLESENILIEKYLNGKEEAKAAAKK
For B1, the binding result was “binds”.

B2: His-ctxI (recombinant N-terminal His-tagged cortexillin I) (natural protein)
chain: MAGKDWEIVQEKAFTAWVNSVLDKRGEKISDVGKDLSDGVKLIFFLELISSKKFNKKYDFEPKARINMIQNVALALKFLDEELKIKVQGIGSEDFVDNNKKMILGFLWTLYRKYRIAVISEGDKSSEEGLLLWCKNTTTGYDGVNITSFTKSFRDGLAFLALSHKFEPESFKFQEFEAMDPIARLNAAFDFAEKGLGVPKLLEAEEVMRGTTDERSLVLYTSLFFHAYRAKEEKARLESSKNEMANRLAGLENSLESEKVSREQLIKQKDQLNSLLASLESEGAEREKRLRELEAKLDETLKNLELEKLARMELEARLAKTEKDRAILELKLAEAIDEKSKLEQQIEATRIRGAAEAQGLGLLRKNLDTHVHDLLKWQKLTMENSSSSSIDDQIIVEVSGLPFGEQVKHLATKLEAENLAIMKLLNQKEDDLKAQKLKSSKSKK
B2: the Kd (in general, the equilibrium constant for the complex coming apart) is about 200 nM and the “stoichiometry N” value is ~4 actin subunits per ctxI homodimer.

Source of the values: publication PMC4072576 (Molecular Biology of the Cell, 2014).
